Results published in article PMC6299093, “BRCA2 controls DNA:RNA hybrid level at DSBs by mediating RNase H2 recruitment”.

B1: X12-3/X12-4C dsDNA 50 bp (dsDNA)
DNA 1: GACGTCATAGACGATTACATTGCTAGGACATGCTGTCTAGAGACTATCGC
DNA 2: GCGATAGTCTCTAGACAGCATGTCCTAGCAATGTAATCGTCTATGACGTC
B2: X12-3 DNA/X12-4C RNA hybrid 50 bp (DNA:RNA)
DNA: GACGTCATAGACGATTACATTGCTAGGACATGCTGTCTAGAGACTATCGC
RNA: GCGAUAGUCUCUAGACAGCAUGUCCUAGCAAUGUAAUCGUCUAUGACGUC
modifications: second strand RNA

Assays:
BRCA1 [1] = biological target: T1, BRCA1 (Homo sapiens, UniProt P38398 1-1863); assay: EMSA; 1 mM EDTA; 10 nM substrate; 25 mM Tris-HCl pH 7.5, 90 mM KCl, 1 mM EDTA, 1 mM DTT, 0.1 mg/ml BSA, RNaseOUT; 37 C 30 min; 10 nM substrate (competition: 1 nM, 10 + 10 min); 6% native PAGE at 4 C; conditions: protein: recombinant; tags: C-terminal 10xHis; N-terminal 2xMBP cleaved off with PreScission; blunt
BRCA1;BARD1 [2] = biological target: T2, BRCA1;BARD1 (Homo sapiens;Homo sapiens, UniProt P38398;Q99728 1-1863;1-777, |); assay: EMSA; 1 mM EDTA; 10 nM substrate; resistant to increasing salt (Supplementary Fig. 5a); 25 mM Tris-HCl pH 7.5, 90 mM KCl, 1 mM EDTA, 1 mM DTT, 0.1 mg/ml BSA, RNaseOUT; 37 C 30 min; 10 nM substrate (competition: 1 nM, 10 + 10 min); 6% native PAGE at 4 C; conditions: protein: recombinant;recombinant; tags: C-terminal 10xHis; N-terminal 2xMBP cleaved off with PreScission;; copies: 1;1; blunt
BRCA1 [3] = biological target: T1, BRCA1; assay: EMSA; 1 mM EDTA; 10 nM substrate; affinity comparable to dsDNA; 25 mM Tris-HCl pH 7.5, 90 mM KCl, 1 mM EDTA, 1 mM DTT, 0.1 mg/ml BSA, RNaseOUT; 37 C 30 min; 10 nM substrate (competition: 1 nM, 10 + 10 min); 6% native PAGE at 4 C; conditions: protein: recombinant; tags: C-terminal 10xHis; N-terminal 2xMBP cleaved off with PreScission; blunt
BRCA1;BARD1 [4] = biological target: T2, BRCA1;BARD1; assay: EMSA; 1 mM EDTA; 10 nM substrate; affinity comparable to dsDNA; resistant to increasing salt (Supplementary Fig. 5a); 25 mM Tris-HCl pH 7.5, 90 mM KCl, 1 mM EDTA, 1 mM DTT, 0.1 mg/ml BSA, RNaseOUT; 37 C 30 min; 10 nM substrate (competition: 1 nM, 10 + 10 min); 6% native PAGE at 4 C; conditions: protein: recombinant;recombinant; tags: C-terminal 10xHis; N-terminal 2xMBP cleaved off with PreScission;; copies: 1;1; blunt

| Binder | binding result (BRCA1 [1]) | binding result (BRCA1;BARD1 [2]) | binding result (BRCA1 [3]) | binding result (BRCA1;BARD1 [4]) |
| --- | --- | --- | --- | --- |
| B1 | binds | binds | – | – |
| B2 | – | – | binds | binds |
